Measured values taken from paper PMC4944158.

Target: GST-RabGAP5 C-terminal aa578-760
Assay: pull-down; GST fusion on Glutathione Sepharose beads incubated with supernatants of homogenised synaptosomes of wt and σ1B −/− mouse brains, 4 hours at RT, PBS; Western blot

percent more AP-1 isolated than from wt extracts: 30%
Substance: AP-1/σ1A complexes of σ1B −/− mice (from UniProt P22892 1-822; O35643 1-943; P35585 1-423; P61967 1-158)
